Data: publication PMC3475689, “Leishmania donovani Argininosuccinate Synthase Is an Active Enzyme Associated with Parasite Pathogenesis” (PLoS Neglected Tropical Diseases, 2012)

Legend:
[1] = biological target: T1, LdASS (V5His-LdASS^WT) (Leishmania donovani, UniProt H9BG20); experiment: malachite green Pi release, pyrophosphatase-coupled; assay type: biochemical; details: read-out: % inhibition at 1 mM
T1 construct: full length (419 residues predicted, 46 kDa), N-terminal V5 and His6 tags kept; overexpressed in L. donovani amastigotes, Ni-NTA pull-down, assayed on beads; tetramer inferred from other ASS; CBZ34226.1 (BPK282A1) stated identical

[2] = biological target: T2, LdPEX5, PTS1 receptor protein peroxin 5 of Leishmania donovani, recombinant (Leishmania donovani, UniProt A0A3S7X906 1-625); experiment: ELISA; plates coated with 100 µL of 10 µg/mL LdIMPDH or LdASS variant in PBS, 4°C, 16 h; blocked with 2% BSA; purified LdPEX5 at 0.01-400 nM; bound LdPEX5 detected with anti-LdPEX5 polyclonal antisera; apparent Kd; details: both partners purified
T2 construct: Peroxin 5 (LdPEX5), the PTS1 receptor of Leishmania donovani; construct not described here; also called receptor peroxin 5; glycosomal PTS1 targeting receptor protein
T2 sequence (looked up): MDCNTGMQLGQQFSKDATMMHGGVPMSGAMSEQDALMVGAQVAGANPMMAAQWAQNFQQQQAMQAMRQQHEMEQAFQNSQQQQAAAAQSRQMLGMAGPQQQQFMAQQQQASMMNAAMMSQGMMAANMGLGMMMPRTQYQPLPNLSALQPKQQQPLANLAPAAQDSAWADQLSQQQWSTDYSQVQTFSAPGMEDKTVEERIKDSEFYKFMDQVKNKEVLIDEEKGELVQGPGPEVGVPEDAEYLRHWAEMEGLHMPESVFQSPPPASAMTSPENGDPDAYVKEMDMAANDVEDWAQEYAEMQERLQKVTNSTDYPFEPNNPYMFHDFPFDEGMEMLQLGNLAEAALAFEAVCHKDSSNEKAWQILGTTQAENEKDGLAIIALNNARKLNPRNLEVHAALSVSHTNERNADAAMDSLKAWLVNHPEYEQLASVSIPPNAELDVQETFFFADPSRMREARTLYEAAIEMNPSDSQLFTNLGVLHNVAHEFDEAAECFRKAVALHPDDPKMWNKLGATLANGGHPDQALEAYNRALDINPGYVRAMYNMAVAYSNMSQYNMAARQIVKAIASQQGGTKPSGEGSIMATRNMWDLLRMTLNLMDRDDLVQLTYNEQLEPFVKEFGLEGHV

[3] = biological target: V5His-LdASS^G128S, recombinant Leishmania donovani argininosuccinate synthase G128S with N-terminal V5 epitope and hexahistidine tags (Leishmania donovani); experiment: as above

Molecule: CC(N)(CC(=O)O)C(=O)O (racemic) [MDLA, methyl-D-L-Aspartic acid]
- inhibition at 1000 µM [1]: ~60%

B1: V5His-LdASS^WT, recombinant Leishmania donovani argininosuccinate synthase with N-terminal V5 epitope and hexahistidine tags (enzyme, UniProt H9BG20 1-418, looked up)
chain: MPATATEVVCGKKPRVVLAYSGGLDTSVIIPWLKENYDYEVIACCANVGQGAGEIDGLEEKAKKSGASKLYLLDLREEYVTDYIFPTLKAGATYEGKYMLGTSHARPLIAKHLVEVAHKEGAVAICHGATGKGNDQVRFELAVMALDPSLKCVAPWREWNIKSREDAIDYAEAHGVPVPCTKSDLYSRDRNLWHISHEGMDLEDPANEPAYARLLRLCNTVEKAPDEAEYVAVQFEKGIPVAVNGRKMSSVELVEELNALGGKHAIGIEDIVEDRLVGMKSRGVYETPAGTILYKALDMLESLCLDRDTQSFKRQSAVRFSELVYDGKWFTPLRESMSAMFDQMAETVTGEATLKLYKGNLVPAGAQSPYSLYNKNIASFGDSKHLYNHHDAEGFIRLFGLPLRVRSMMKAKEMPSSL
notes: Argininosuccinate synthase (LdASS) of Leishmania donovani strain Ld1S2D; predicted protein identical to L. infantum LinJ.23.0300 and L. donovani BPK282A1 CBZ34226.1; C-terminal Ser-Ser-Leu (PTS1) left free; Made from the pCRT7 plasmid with primers F3/R3 and ligated into pEXP-5-NT/TOPO; also called rLdASS WT, N-terminal tagged; pEXP5-V5HisLdASS^WT; source: E. coli BL21 (DE3) pLysS, purified …
- Kd [2]: ~5 nM

B2: LdPEX5, PTS1 receptor protein peroxin 5 of Leishmania donovani, recombinant (receptor)
chain: T2 sequence (looked up)
- Kd [3]: 5 nM

B3: LdIMPDH, glycosomal PTS1 protein inosine monophosphate dehydrogenase of Leishmania donovani, recombinant (enzyme, UniProt P21620 1-514, looked up)
chain: MATNNANYRIKTIKDGCTAEELFRGDGLTYNDFIILPGFIDFGAADVNISGQFTKRIRLHIPIVSSPMDTITENEMAKTMALMGGVGVLHNNCTVERQVEMVKSVKAYRNGFISKPKSVPPNTPISNIIRIKEEKGISGILVTENGDPHGKLLGIVCTKDIDYVKNKDTPVSAVMTRREKMTVERAPIQLEEAMDVLNRSRYGYLPIVNENDEVVNLCSRRDAVRARDYPHSTLDKSGRLICAAATSTRPEDKRRVAALADVGVDVLVLDSSQGNTIYQIAFIKWVKSTYPHLEVVAGNVVTQDQAKNLIDAGADGIRIGMGSGSICITQEVLACGRPQGTAVYKVAQYCASRGVPCTADGGLRQVGDICKALAIGANCAMLGGMLSGTTETPGEYFFKGGVRLKVYRGMGSLEAMSQGKESGKRYLSENEAVQVAQGVSGNVVDKGSAAKLIAYVSKGLQQSAQDIGEISFDAIREKMYAGQVLFSRRSPTAQGEGGVHSLHSYEKKLFAAKM
notes: Inosine monophosphate dehydrogenase (LdIMPDH) of Leishmania donovani, with the C-terminal tripeptide PTS1 signal Ala-Lys-Met; construct not described here
- Kd [2]: ~5 nM
